In article PMC4856986 one finds binding result and Ka data, which are given here for six molecules.

In data set [1] the target is T1, SOX18-HMG (79 aa) (Mus musculus, UniProt P43680 77-155). Nature of the data set: X-ray crystal structure.
Another data set concerns the target T2, BRN2-POU (mouse, UniProt P31360 264-415).
T2 sequence: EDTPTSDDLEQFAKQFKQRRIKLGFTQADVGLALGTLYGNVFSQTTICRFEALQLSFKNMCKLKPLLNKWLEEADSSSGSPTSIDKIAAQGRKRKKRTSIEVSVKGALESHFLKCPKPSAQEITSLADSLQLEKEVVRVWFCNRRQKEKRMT
The data set is described as follows: EMSA. On the technique in general: In EMSA bound probe runs differently from free probe, usually more slowly.

Data set [2] addresses T3, OCT6-POU (mouse, UniProt P21952 245-396).
T3 sequence: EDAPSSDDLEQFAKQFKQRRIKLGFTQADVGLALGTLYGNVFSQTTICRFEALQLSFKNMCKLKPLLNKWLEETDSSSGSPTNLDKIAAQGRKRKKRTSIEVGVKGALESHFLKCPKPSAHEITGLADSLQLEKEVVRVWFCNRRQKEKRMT
Nature of the data set: EMSA.

The target in data set [3] is T4, ESRRB (DNA binding domain) (mouse, UniProt Q61539 100-186).
T4 sequence: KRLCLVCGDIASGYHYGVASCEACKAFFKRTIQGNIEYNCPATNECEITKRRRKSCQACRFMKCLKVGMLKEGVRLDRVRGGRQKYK
The data set is described as follows: EMSA and competition.

Data set [4] addresses T3, OCT6-POU. The data set is described as follows: EMSA competition.
A further data set addresses PAX9 (mouse, UniProt P47242 4-130). Nature of the data set: EMSA and competition.
The target in data set [5] is T1, SOX18-HMG (79 aa). Nature of the data set: ITC. (In general: In ITC the heat of successive injections is recorded.)

T1 sequence (P43680 77-155): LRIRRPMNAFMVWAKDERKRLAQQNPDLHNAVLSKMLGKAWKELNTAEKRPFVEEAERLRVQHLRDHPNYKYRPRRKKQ
PAX9, sequence (P47242 4-130): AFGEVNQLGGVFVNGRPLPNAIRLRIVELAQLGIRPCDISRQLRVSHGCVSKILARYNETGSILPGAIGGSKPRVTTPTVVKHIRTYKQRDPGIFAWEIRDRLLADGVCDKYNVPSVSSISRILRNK

B1: Prox1 crystal DNA, 16 bp with CG overhangs (dsDNA)
DNA 1: CACTAGCATTGTCTGGG
DNA 2: GCCCAGACAATGCTAGT
As for B1, the binding result in the data set with SOX18-HMG (79 aa) [1] is “binds”.

B2: Cy5-Pore (dsDNA)
DNA 1: CACATTTGAAAGGCAAATGGAG
DNA 2: CTCCATTTGCCTTTCAAATGTG
For B2, the binding result with BRN2-POU and with OCT6-POU [2] was “binds” in each case.

B3: Esrrb element (Cy5/UL) (dsDNA)
DNA 1: TGGTGACCTTGGCT
DNA 2: AGCCAAGGTCACCA
As to B3, in data set [3], the binding result is “binds”.

B4: UL-More (dsDNA)
DNA 1: TCCTCATGCATATGCATGAGGA
DNA 2: TCCTCATGCATATGCATGAGGA
In the case of B4, the binding result with OCT6-POU [4] is listed as “binds”.

B5: Pax element (Cy5/UL) (dsDNA)
DNA 1: AAGCATTTTCACGCATGAGTGCACAG
DNA 2: CTGTGCACTCATGCGTGAAAATGCTT
Regarding B5, in the data set with PAX9, the binding result was “binds”.

B6: Prox1 15 bp (NAT decoy when unlabelled) (dsDNA)
DNA 1: CTAGCATTGTCTGGG
DNA 2: CCCAGACAATGCTAG
On to B6, for which, in the data set with SOX18-HMG (79 aa) [5], the Ka worked out at 2.47e+06 M⁻¹.
